Source: patent US20150104459A1

Columns and labels:
[1] = target: recombinant soluble homotrimeric HA, A/common magpie/Hong Kong/5052/07 (H5N1) (influenza A virus A/common magpie/Hong Kong/5052/2007 (H5N1)); experiment: microarray, trimeric HA, transfection supernatant; conditions: remark: other sources report otherwise
[2] = target: recombinant soluble homotrimeric HA of A/common magpie/Hong Kong/5052/07 (H5N1) (Influenza A virus A/common magpie/Hong Kong/5052/2007 (H5N1)); experiment: HA microarray, BCC supernatant; conditions: remark: other sources report otherwise

Binder | Trimeric HA Binding RLU [1] [RLU] | Trimeric HA Binding RLU [2] [RLU]
TCN-545 (5082_I15) (antibody, V domains shown) VH: QVQLQQWGAGLLKPSETLSLSCAVFGGSFSDYYWTWIRQPPGKGLEWIGEIKHSGRTNYNPSLESRVTISVDTSKNQFSLKLSSVTAADTAIYYCARGTDPDTEGYCRSGSCSAFDFWGQGTLVTVSS VL: EIVLTQSPGTLSLSPGERATLSCRASHFVNYRSLAWYQQTPGQVPRLLIYGASTRATGIPDRFSGSGSGTDFTLTISRLEPEDFAVYFCQQYGGSPRYTFGQGTRLEIK | 1390 | 
TCN-553 (5261_C18) (antibody, V domains shown) VH: QVQVVQSGTEVKKPGSSVKVSCQTSGGRFMSYAITWVRQAPGQGLEWMGGIVPVFGTANYAQKFQGRVTITTDDSTRTAYMELSSLRSEDTAVYYCGFRYGSGYGFDSWGQGTLVTVSS VL: EIVLTQSPGTLSLSPGERATLSCRASQSVSSSYLAWYQKKPGQAPRLLIYGASTRATGIPDRFTGSGSGTDFTLSISRLEPEDFAVYYCQHFGTSVFTFGGGTKVEIK | 39200 | 26000
TCN-543 (5081_G23) (antibody, V domains shown) VH: QVHLVQSGAEVRKPGDSVKVSCKTSGYTFSTYPVAWVRQVPGQGLEWMGWISTYNGNTNFAQNFQGRVTLTTDTTTNTAYMEVRSLKFDDTAVYYCARVEGSYRDFWNNQNRFDPWGQGTLVTVSS VL: SYVLTQPPSVSVAPGQTARISCGGSNIGGKSVHWYQQKPGQAPVLVVYDDSGRPSGIPERFSGSNSGDTATLTISRVEAGDEADYFCQVWDNFGGVFGTGTKVTVL | 1070 | 
TCN-542 (5079_A16) (antibody, V domains shown) VH: QVQLQESGPGLVKPSQTLSLTCTVSGGSISSGNYYWNWVRQHPGKGLEWIGYIYYRGSTFYNPSLKSRVTISIDTSKNQFSLRLSSVTAADTAVYYCAKDTRSSLDNYQYGMDVWGQGTTVTVSS VL: QTVVTQEPSLTVSPGGTVTLTCASSTGAVTSSYFPNWFQQKPGQAPRPLIYSTTIRHSWTPARFSGSLLGGKAALTLSGVQPEDEADYYCLLYSGGDPVAFGGGTKLTVL | 1670 | 
TCN-538 (3206_O17) (antibody, V domains shown) VH: QITLKESGPTLVKPTQTLTLTCVFSGFSLSITGVRVGWIRQPPGKALEWLALISWDDEKHYSPSLQSRLTITKDTSKNQVVLTMTNLDPVDTATYYCARSTDRGHVLRYFGWMLPGDAFDVWGQGTMVTVSS VL: DIVMTQSPDFLPVSLGERATINCKSSQRVLYSSNNKNYLAWYQLKPGQPPKLIIYWASTRESGVPDRFSGSGSGTEFTLTISSLQAEDVAVYYCQQYYSRPYTFGQGTKLEIK | 3140 | 18700
TCN-530 (5248_H10a) (antibody, V domains shown) VH: QVQLVQSGAEVRKPGSSVKVSCKASGGPFMSYAIGWVRQAPGQGLEWMGGINPVFGRPHYAQKFQGRVTIATDDSTKTSYMELSSLTSEDTGMYYCASRYSRSSPGTFESWGQGTLVTVSS VL: EIVMTQFPATLSVSPGERVTLSCRASQSVSNNLAWYQQKPGQPPRLLIYDASTRATGVPAKFSGTGSGTEFTLSISSLQSEDFAVYYCQQYHNWPPSYSFGLGTKLEIK |  | 42500
TCN-557 (5081_A04) (antibody, V domains shown) VH: QVQLVQSGAEVKKPGASVKVSCKASGHTFTGYYIHWVRQAPGQGLEWMGWINPDSGATSSAQNFQGRVTMTGDTSSSTAYMELSRLSFDDTAVYYCARVLFTSPFDFWGEGTLVTVSS VL: QAVVTQEPSLAVSPGGTVTLTCGSSTGAVTRGHYPYWFQQKPGQAPRALIYDSAGNRHSWTPARFSGSLLGGKAALTLSGAQPEDEAEYYCLLSYSGVWVFGGGTKLTVL | 54900 | 
TCN-537 (3194_D21) (antibody, V domains shown) VH: QVQLQQWGSGLLKPSETLSLTCAVYGGSFRDDYWTWIRQPPGKGLEWIGEINHSGRTNYNPSLKSRVTISVDTSLKQFSLKVISVTAADTAVYYCARGTSHVSRYFDWLPPTNWFDPWGQGTQVTVSS VL: DIVLTQSPGTLSLSPGERATLSCRASQSVSSSYLAWYQQKPGQAPRLVMYGAATRATGIPDRFSGSGSGPDFTLTISRLEPEDFAMYYCQQYGNSPITFGQGTRLEIK | 2070 | 18700
TCN-551 (5243_D01) (antibody, V domains shown) VH: EVQLVQSGSEVKKPGESLKISCKGSGYSFSNYWIGWVRHMPGKGLEWMGIIYPGDSDTRYSPSFQGQVTMSADKSSSTVYLQWSSLKASDTAIYYCARRGGHSFGYGSGGDTHSEFDSWGQGTLVTVSS VL: QSVLTQSPSVSAAPGQKVTISCSGSDSNIGDYFVCWYQHLPGKPPQLLIYENNKRPSGIPDRFSGSKSGTSATLGITGIQTGDEADYYCATWDGSLSAWVFGGGTKLTVL |  | 45700
TCN-534 (5249_B02) (antibody, V domains shown) VH: QVQLVQSGAEVKKPGSSVKVSCRESGGTFNGYTITWVRQAPGQGLEWMGGIIPMMGTVNYAQKLQGRVTITTDYFTKTAYMDLNNLRSEDTAMYYCVKIRYTGQQLLWGQGTLVTVSS VL: DIQMTQSPSTLSASIGDRVTITCRASQSIASWLAWYQQKPGKAPKLLIYEAVNLESGVPSRFSGSGSGTDFTLTISSLQPDDFATYFCQHYGTISQTFGGGTKVEIK |  | 32500
TCN-552 (5249_I23) (antibody, V domains shown) VH: QVQVVQSGAEVKKPGSSVRVSCQASGGTFMNYAIIWVRRAPGQGLEWMGGIIPVFPTPNYAQMFQGRVTISTDESRSTSFLELTNLRYEDTAVYYCARRIYHGGNSGFDFWGQGTLVTVSS VL: EIVLTQSPATLSLSPGERATLSCRASQSVGNYLAWYQQKPGQAPRLLIYDSSNRAPGIPARFSGSGSGTDFTLTISSLAPEDFAVYYCQQRSKWPPMYSFGHGTKLEIK | 34600 | 42200
TCN-546 (5089_L08) (antibody, V domains shown) VH: QVQLQQWGAGLLKPSETLSLTCGVYGGSLSDYYWSWIRQPPGKGLEWIGEINHSGGTNYNPSLKRRVTISVDTSKKQFSLKMNSVTAADTAVYYCARGTDPDTEVYCRAGNCAAFDFWGQGTLVTVSS VL: EIVLTQSPGTLSLSPGERATLSCRASHFVIGRAVAWYQQKPGQAPRLLIYGASSRATGIPDRFSGSGSGTDFTLTISRLETEDFAVFYCQHYGSSPRYAFGQGTKLEIK | 1920 | 
TCN-533 (5256_A17) (antibody, V domains shown) VH: QVQLVQSGADVKKPGSSVTVSCKASGGSFSNYGINWVRQAPGQGLEWMGGIIPLINAPNYAPKFQGRVTITADMFSNIVSLQLTSLRTDDTAVYYCARRKMTTAIDYWGQGTLVTVSS VL: QPVLSQPPSASASLGASVTLTCTLSSGFDNYQVAWYQQRPGKGPRFVMRVGNGGNVASKGDGIPDRFSVSGSGLNRYLTIKNIQEDDESDYYCGADHGSGNNFVSPYVFGGGTKLTVL |  | 44500
TCN-555 (5246_L16) (antibody, V domains shown) VH: QVQLVQSGAEVKRPGSSVKVSCTASGGIFRKNAISWVRQAPGQGLEWMGGIIAVFNTANYAQKFQNRVKITADESGNTAYMELSSLTSDDTAVYYCASHPKYFYGSGSYPDFWGQGTLVTVSS VL: QSALTQPRSVSGSPGQSITISCTGGSSDIGASNSVSWYQQHPGKAPKLVIFDVTERPSGVPHRFSGSKSGNTASLTVSGLQPDDEADYFCCAYGGKYLVVFGGGTKVTVL | 33600 | 16100
TCN-563 (5237_B21) (antibody, V domains shown) VH: QVQLAQSGAEVKRPGSSVKVSCTASGGIFRKNAISWVRQAPGQGLEWMGGIIAVFNTANYAQKFQGRVKITADESGNTAYMELSSLRSDDTAVYYCASHPKYFYGSGSYPDFWGQGTLVTVSS VL: QSALTQPRSVSGSPGQSVTISCTGSSSDVGASNSVSWYQQHPGKAPKLVIYDVTERPSGVPHRFSGSKSGNTASLTVSGLQPEDEADYFCCAYGGKYLVVFGGGTKVTVL |  | 27500
TCN-521 (3280_D18) (antibody, V domains shown) VH: EVQLVQSGGGLVQPGGSLRLACVVSGFTVTSNYITWVRQAPGKGLEWVSVIYSHGRAYYSASVNGRFTISRHTSKNTVYLEMNSLRPEDTAVYYCAGGGLVGGYDEYFFDYWGQGTLATVSS VL: ETVLTQSPGTLSLTPGERATLSCRVGQSVSGSHLAWYQQKPGQAPRLLIYGASSRATGIPDRFGGSVSGTDFTLTISRLEPEDSAVYYCQQYGDSRYTFGQGTKLEIK |  | 13500
TCN-540 (5060_F05) (antibody, V domains shown) VH: QVQLVQSGGGVVQPGRSLRLSCAASGFTFSSYAMHWVRQAPGKGLEWVAIISYDGNDQYYTDSVKGRFTISRDSSKVYLQMHRLRPEDTAVYYCAKEFETSGYFHGSFDYWGQGILVTVSS VL: QSALTQPASVSGSPGQSITISCTGTSSDVGGYNYVSWYQQHPGKAPKLLIYEVTNWPSGVSNRFSGSKSGNTASLTISGLQAEDEADYYCSSYAGSSTWVFGGGTRVTVL | 1800 | 113
TCN-550 (5096_F06) (antibody, V domains shown) VH: QVQLQESGPGLVKPSETLSLTCTVSGASINSHYWSWIRQPPGKGLEWIGYVYYSGSTTYNPSLKSRVTLSVDTSKNQFSLNLSSVTAADTAFYYCARHPYDVLTGSGDWFDPWGQGTLVTVSS VL: SYVLTQAPSVSVAPGQTARITCGGNAIGSKKVHWYQHKAGQAPVLVVYDDTDRPSGIPERFSGSNSWSTATLTINRVEAGDEADYYCQVWDFTIDHVVFGGGTKLTVL | 993 | 
TCN-535 (5246_P19) (antibody, V domains shown) VH: QVQLVQSGSEVKKPGTSVKVSCTASGSVFTNYGISWVRQAPGQGLEWMGGIIPLFGAAKYAQKFQGRVTITADESTKTVYMELSRLTSKDTAIYFCAKAPRVYEYYFDQWGQGTPVTVSS VL: EIVLTQSPGTLSLSPGERATLSCRASQSVSSSQLAWYQQKPGQAPRLIIYGASTRATGIPDRFSGSGSGTDFTLTIGRLEPEDFAVFFCQQYSTSPPTFGQGTKVDFK | 477 | 45900
TCN-523 (5248_A17) (antibody, V domains shown) VH: QVQLVQSGAEVKKPGSSVKVSCKASGGSFSNYAFSWVRQAPGQGLEWMGGTIPLLGTTNYAQKFQGRVTISADQFTSTAYMELGSLRSEDTAVYYCTRRKMTTAFDSWGQGTLVTVSS VL: QPVLTQPPSASASLGASVTLTCTLSSAYSNYKVDWYQQRPGKGPRFVMRVGTGGIVGSKGDGIPDRFSVLGSGLNRYLTIKNIQEEDESDYHCGADHGSGSNFVSPYVFGGGTKLTVL |  | 45800
